{"source": "paper PMC7249120", "about": "“Hybrid Imaging Agents for Pretargeting Applications Based on Fusarinine C—Proof of Concept” (Molecules, 2020)", "key": {"[1]": {"format": "physicochemical", "settings": "pH 7.4", "protocol": "To determine the hydrophilicity the distribution of the ^68Ga-labeled conjugates between an organic (octanol) and aqueous (PBS) layer was assessed. Aliquots (50 µL) of the ^68Ga-labeled tracers (~5 µM) were diluted in 1 mL of octanol/PBS (1:1, v/v) and the mixture was vortexed at 1400 rpm (MS 3 basic vortexer, IKA, Staufen, Germany) for 15 min at RT. Subsequently the mixture was centrifuged for 2 min at 4500 rpm followed by measuring aliquots (50 µL) of both layers in the gamma counter (Wizard^2 3”, Perkin Elmer, Waltham, MA, USA). LogD was calculated using Microsoft Excel (n = 3, six replicates)."}, "[2]": {"tested_on": "TCO-alendronate pre-treated mice (bone)", "experiment": "PET/CT and optical imaging in the alendronate-TCO bone pretargeting model", "format": "in vivo, BALB/c mice", "settings": "TCO-alendronate pre-treated mice vs alendronate alone; PET/CT 1 h p.i., OI of excised bones 24 h p.i.", "protocol": "For the proof of concept of pretargeting in vivo a model described by Yazdani et al. was applied, based on TCO-modified alendronate for bone targeting. For preparation of TCO–alendronate, briefly, 20 mg sodium alendronate trihydrate (Sigma Aldrich) was dissolved in 400 µL 0.1N sodium-bicarbonate solution pH 8.5. Then 0.6 mL TCO–NHS ester (Click chemistry tools, Scottsdale, AZ, USA), 20 mg/mL in DMSO, were slowly added to the solution and stirred overnight in the dark, followed by freeze drying. As a control the same preparation was prepared, replacing TCO–NHS solution by the same volume of DMSO. For injection in mice the residue was dissolved in water and adjusted to pH 7 (30 mM).\nMicroPET/CT images were acquired with an Albira PET/SPECT/CT small animal imaging system (Bruker Biospin Corporation, Woodbridge, CT, USA). […] After reconstruction, acquired data was viewed and analyzed with PMOD software (PMOD Technologies Ltd., Zurich, Switzerland).\nNear-infrared in vivo fluorescence imaging was performed with an In-Vivo MS FX PRO small animal imaging system (Bruker Biospin Corporation, Woodbridge, CT, USA) after the PET/CT investigation. […] An appropriate filter set (λex = 710 nm and λem = 790 nm) was used for acquiring the fluorescence of the IRDye800CW-conjugates ex vivo. […] Acquired images were analyzed using Bruker MI SE software (Bruker Biospin Corporation, Woodbridge, CT, USA)."}, "[3]": {"tested_on": "CD20-expressing Raji cells pre-treated with Rituximab(RTX)–TCO", "experiment": "Cell binding studies on Raji cells pre-treated with RTX-TCO or non-modified RTX", "format": "cell-based, human", "design": "concentration or dose not given beside the values", "settings": "radioligand 30 min, 37 °C", "protocol": "CD20-expressing Raji cells ([…] lymphoblast-like B-lymphocyte cells) were obtained from the American Type Culture Collection (ATCC, Manassas, Virginia, USA). The cells were cultured in tissue culture flasks (Cellstar; Greiner Bio-One, Kremsmuenster, Austria) using RPMI-1640 medium with 10% (v/v) fetal bovine serum (FBS) as supplement (Invitrogen Corporation, Lofer, Austria). For cell binding studies 10 × 10^6 cells were washed twice with fresh medium, diluted with PBS to a final concentration of 1 × 10^6 cells per mL and 500 µL of cell suspension was transferred to Eppendorf tubes. Hereafter, 50 µL of RTX–TCO or non-modified RTX as negative control (both 0.5 µM) was added and the cell suspension was maintained at 37 °C under gentle shaking. After 1 h the suspension was centrifuged (2 min, 11 × 10^3 rcf), the supernatant was discarded and the cells were washed twice with 600 µL PBS and finally resuspended with 450 µL PBS. Subsequently 50 µL of the radioligand solution (22 nM) was added and the suspension was incubated for 30 min at 37 °C. After centrifugation and two washing steps with 600 µL PBS, the cells were resuspended in 500 µL PBS and transferred to polypropylene vials for gamma counter measurement followed by calculation of cell-associated activity in comparison to the total activity applied (n = 3, six replicates)."}, "[4]": {"design": "species or system BALB/c mice", "settings": "mouse, in vivo, iv", "protocol": "Biodistribution studies of the FSC-based hybrid imaging agents radiolabeled with Gallium-68 were performed using healthy five-week-old female BALB/c mice (Charles River Laboratories, Sulzfeld, Germany). Animals (n = 3) were injected via lateral tail vein with 1 nmol of conjugate and a total activity of approximately 6 MBq. Mice were sacrificed by cervical dislocation 1 h p.i. followed by collection of the main organs and tissue, subsequent gamma counter measurement and calculation of the percentage of injected activity per gram tissue (% IA/g)."}}}
{"smiles": "C/C1=C/C(=O)N(O)CCC[C@H](NC(=O)CCOCCOCCOCCOCCOCCC(=O)NCc2ccc(-c3nncnn3)cc2)C(=O)OCC/C(C)=C\\C(=O)N(O)CCC[C@H](NC(=O)CCOCCOCCOCCOCCOCCC(=O)NCc2ccc(-c3nncnn3)cc2)C(=O)OCC/C(C)=C\\C(=O)N(O)CCC[C@H](NC(=O)CCCCC[N+]2=C(/C=C/C3=C(Oc4ccc(S(=O)(=O)O)cc4)C(=C/C=C4/N(CCCCS(=O)(=O)O)c5ccc(S(=O)(=O)O)cc5C4(C)C)/CCC3)C(C)(C)c3cc(S(=O)(=O)[O-])ccc32)C(=O)OCC1", "note": "[IRDye800CW-FSC-(PEG5-Tz)2]", "values": [{"measurement": "logD", "setting": "[1]", "value": "-2.46 ± 0.09"}, {"measurement": "Bone uptake in PET/CT and optical imaging", "setting": "[2]", "value": "high accumulation in joints and spine"}, {"measurement": "Cell binding (cell-associated activity of total activity applied)", "setting": "[3]", "value": "4.59 ± 1.45", "unit": "%"}]}
{"smiles": "CC(=O)N[C@H]1CCCN(O)C(=O)/C=C(/C)CCOC(=O)[C@@H](NC(=O)CCOCCOCCOCCOCCOCCC(=O)NCc2ccc(-c3nncnn3)cc2)CCCN(O)C(=O)/C=C(/C)CCOC(=O)[C@@H](NC(=O)CCCCC[N+]2=C(/C=C/C3=C(Oc4ccc(S(=O)(=O)O)cc4)C(=C/C=C4/N(CCCCS(=O)(=O)O)c5ccc(S(=O)(=O)O)cc5C4(C)C)/CCC3)C(C)(C)c3cc(S(=O)(=O)[O-])ccc32)CCCN(O)C(=O)/C=C(/C)CCOC1=O", "note": "[IRDye800CW-MAFC-PEG5-Tz]", "values": [{"measurement": "logD", "setting": "[1]", "value": "-2.4 ± 0.05"}, {"measurement": "Cell binding (cell-associated activity of total activity applied)", "setting": "[3]", "value": "2.88 ± 0.53", "unit": "%"}]}
{"smiles": "C/C1=C/C(=O)N(O)CCC[C@H](NC(=O)CCOCCOCCOCCOCCOCCC(=O)NCc2ccc(-c3nncnn3)cc2)C(=O)OCC/C(C)=C\\C(=O)N(O)CCC[C@H](NC(=O)CCOCCOCCOCCOCCOCCC(=O)NCc2ccc(-c3nncnn3)cc2)C(=O)OCC/C(C)=C\\C(=O)N(O)CCC[C@H](NC(=O)CCCCC[N+]2=C(/C=C/C=C/C=C3/N(C)c4ccc(S(=O)(=O)O)cc4C3(C)C)C(C)(C)c3cc(S(=O)(=O)[O-])ccc32)C(=O)OCC1", "note": "[SulfoCy5-FSC-(PEG5-Tz)2]", "values": [{"measurement": "logD", "setting": "[1]", "value": "-2.29 ± 0.1"}, {"measurement": "Cell binding (cell-associated activity of total activity applied)", "setting": "[3]", "value": "5.91 ± 1.62", "unit": "%"}]}
{"smiles": "CC(=O)N[C@H]1CCCN(O)C(=O)/C=C(/C)CCOC(=O)[C@@H](NC(=O)CCOCCOCCOCCOCCOCCC(=O)NCc2ccc(-c3nncnn3)cc2)CCCN(O)C(=O)/C=C(/C)CCOC(=O)[C@@H](NC(=O)CCCCC[N+]2=C(/C=C/C=C/C=C3/N(C)c4ccc(S(=O)(=O)O)cc4C3(C)C)C(C)(C)c3cc(S(=O)(=O)[O-])ccc32)CCCN(O)C(=O)/C=C(/C)CCOC1=O", "note": "[SulfoCy5-MAFC-PEG5-Tz]", "values": [{"measurement": "logD", "setting": "[1]", "value": "-2.85 ± 0.08"}, {"measurement": "Cell binding (cell-associated activity of total activity applied)", "setting": "[3]", "value": "3.09 ± 0.58", "unit": "%"}]}
{"smiles": "CC(=O)N[C@H]1CCCN(O)C(=O)/C=C(/C)CCOC(=O)[C@@H](NC(=O)CCOCCOCCOCCOCCOCCC(=O)NCc2ccc(-c3nncnn3)cc2)CCCN(O)C(=O)/C=C(/C)CCOC(=O)[C@@H](NC(=O)CCCCC[N+]2=C(/C=C/C3=CC(=C/C=C4/N(C)c5ccc(S(=O)(=O)O)cc5C4(C)C)/CCC3)C(C)(C)c3cc(S(=O)(=O)[O-])ccc32)CCCN(O)C(=O)/C=C(/C)CCOC1=O", "note": "[SulfoCy7-MAFC-PEG5-Tz]", "values": [{"measurement": "logD", "setting": "[1]", "value": "-1.92 ± 0.05"}, {"measurement": "Cell binding (cell-associated activity of total activity applied)", "setting": "[3]", "value": "4.12 ± 0.88", "unit": "%"}, {"measurement": "Organ activities compared with SulfoCy5 and IRDye800CW counterparts", "setting": "[4]", "value": "higher activities in all organs"}]}
